The values below are quoted from earlier work in paper PMC2884063.

In the data set the target is Importin β (Homo sapiens) (UniProt Q14974).

pKd: −log10 of the molar value.

Chain of UniProt Q14974 (Q14974 whole entry): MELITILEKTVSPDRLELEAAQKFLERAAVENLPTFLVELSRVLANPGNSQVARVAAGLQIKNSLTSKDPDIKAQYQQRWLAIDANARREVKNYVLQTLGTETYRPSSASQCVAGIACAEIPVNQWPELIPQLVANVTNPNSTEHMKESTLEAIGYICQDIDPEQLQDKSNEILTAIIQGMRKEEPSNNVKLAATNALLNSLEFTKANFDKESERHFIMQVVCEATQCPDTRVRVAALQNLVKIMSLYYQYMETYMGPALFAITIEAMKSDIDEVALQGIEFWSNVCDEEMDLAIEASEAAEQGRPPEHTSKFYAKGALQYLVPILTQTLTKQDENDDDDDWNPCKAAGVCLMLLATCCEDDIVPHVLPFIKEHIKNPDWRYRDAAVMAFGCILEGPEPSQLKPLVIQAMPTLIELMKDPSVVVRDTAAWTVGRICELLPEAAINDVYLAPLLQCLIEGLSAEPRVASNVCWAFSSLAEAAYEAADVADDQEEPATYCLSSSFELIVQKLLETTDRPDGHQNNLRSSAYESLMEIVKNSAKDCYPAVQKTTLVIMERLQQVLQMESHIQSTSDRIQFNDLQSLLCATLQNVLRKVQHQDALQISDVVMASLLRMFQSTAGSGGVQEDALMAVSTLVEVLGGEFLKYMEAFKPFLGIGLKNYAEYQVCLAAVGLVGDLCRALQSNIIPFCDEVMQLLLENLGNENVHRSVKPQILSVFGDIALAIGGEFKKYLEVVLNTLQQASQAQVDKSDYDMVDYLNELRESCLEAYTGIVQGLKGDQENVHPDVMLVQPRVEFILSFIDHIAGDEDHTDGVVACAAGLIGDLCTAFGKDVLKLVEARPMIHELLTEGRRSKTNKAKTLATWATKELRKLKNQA

What is called pKd is the Kd on a negative log10 scale, so that one unit is a factor of ten. On to “Snp1 (snurportin 1) IBB (from UniProt O95149)”, for which the pKd was 8.70.
